pKd: −log10 of the molar value.
Assays:
[1] = target: SLPI binding sites on U937 cells (human monocyte cell line; intact cells, PMA-induced cells or plasma membranes) (human); experiment: competition with 125I-SLPI, U937 plasma membranes, competitor at 0.800 nM
[2] = target: SLPI binding sites on U937 cells (human monocyte cell line; intact cells, PMA-induced cells or plasma membranes) (human); experiment: competition with 125I-SLPI, U937 plasma membranes, competitor at 0 nM
[3] = target: SLPI binding sites on U937 cells (human monocyte cell line; intact cells, PMA-induced cells or plasma membranes) (human); experiment: competition with 125I-SLPI, intact U937 cells, competitor at 2.6 nM
[4] = target: SLPI binding sites on U937 cells (human monocyte cell line; intact cells, PMA-induced cells or plasma membranes) (human); experiment: 125I-SLPI saturation binding, intact U937 cells, *SLPI at 1280 pM
[5] = target: SLPI binding sites on U937 cells (human monocyte cell line; intact cells, PMA-induced cells or plasma membranes) (human); experiment: competition with 125I-SLPI, intact U937 cells, cold SLPI at 2750 nM
[6] = target: SLPI binding sites on U937 cells (human monocyte cell line; intact cells, PMA-induced cells or plasma membranes) (human); experiment: competition with 125I-SLPI, U937 plasma membranes, competitor at 2.56 nM
[7] = target: SLPI binding sites on U937 cells (human monocyte cell line; intact cells, PMA-induced cells or plasma membranes) (human); experiment: competition with 125I-SLPI, intact U937 cells, cold SLPI at 860 nM
[8] = target: SLPI binding sites on U937 cells (human monocyte cell line; intact cells, PMA-induced cells or plasma membranes) (human); experiment: 125I-SLPI saturation binding, U937 cells minus PMA, *SLPI at 5120 pM
[9] = target: SLPI binding sites on U937 cells (human monocyte cell line; intact cells, PMA-induced cells or plasma membranes) (human); experiment: 125I-SLPI saturation binding, U937 cells plus PMA, *SLPI at 2,560 pM
[10] = target: SLPI binding sites on U937 cells (human monocyte cell line; intact cells, PMA-induced cells or plasma membranes) (human); experiment: 125I-SLPI saturation binding, U937 cells plus PMA, *SLPI at 10,240 pM
[11] = target: SLPI binding sites on U937 cells (human monocyte cell line; intact cells, PMA-induced cells or plasma membranes) (human); experiment: 125I-SLPI saturation binding, U937 cells plus PMA, *SLPI at 1,280 pM
[12] = target: SLPI binding sites on HuT78 cells (human T cell line) (human); experiment: competition with 125I-SLPI, intact HuT78 cells, competitor at 8.2 nM
[13] = target: SLPI binding sites on U937 cells (human monocyte cell line; intact cells, PMA-induced cells or plasma membranes) (human); experiment: 125I-SLPI saturation binding, intact U937 cells, *SLPI at 10,240 pM
[14] = target: SLPI binding sites on U937 cells (human monocyte cell line; intact cells, PMA-induced cells or plasma membranes) (human); experiment: 125I-SLPI saturation binding, intact U937 cells, *SLPI at 40 pM
[15] = target: SLPI binding sites on HuT78 cells (human T cell line) (human); experiment: competition with 125I-SLPI, intact HuT78 cells, Kd by Cheng-Prusoff
[16] = target: SLPI binding sites on U937 cells (human monocyte cell line; intact cells, PMA-induced cells or plasma membranes) (human); experiment: 125I-SLPI saturation binding, U937 cells minus PMA, *SLPI at 320 pM
[17] = target: SLPI binding sites on U937 cells (human monocyte cell line; intact cells, PMA-induced cells or plasma membranes) (human); experiment: competition with 125I-SLPI, U937 plasma membranes, competitor at 8.20 nM
[18] = target: SLPI binding sites on U937 cells (human monocyte cell line; intact cells, PMA-induced cells or plasma membranes) (human); experiment: competition with 125I-SLPI, intact U937 cells, cold SLPI at 8.2 nM
[19] = target: SLPI binding sites on U937 cells (human monocyte cell line; intact cells, PMA-induced cells or plasma membranes) (human); experiment: competition with 125I-SLPI, U937 plasma membranes, Kd by Cheng-Prusoff
[20] = target: SLPI binding sites on U937 cells (human monocyte cell line; intact cells, PMA-induced cells or plasma membranes) (human); experiment: Scatchard plot of 125I-SLPI saturation binding, intact U937 cells
[21] = target: SLPI binding sites on HuT78 cells (human T cell line) (human); experiment: competition with 125I-SLPI, intact HuT78 cells, cold SLPI at 0.078 nM
[22] = target: SLPI binding sites on U937 cells (human monocyte cell line; intact cells, PMA-induced cells or plasma membranes) (human); experiment: Scatchard plot of 125I-SLPI saturation binding, non-induced U937 cells
[23] = target: SLPI binding sites on U937 cells (human monocyte cell line; intact cells, PMA-induced cells or plasma membranes) (human); experiment: 125I-SLPI saturation binding, U937 cells plus PMA, *SLPI at 5,120 pM
[24] = target: SLPI binding sites on U937 cells (human monocyte cell line; intact cells, PMA-induced cells or plasma membranes) (human); experiment: competition with 125I-SLPI, intact U937 cells, competitor at 26 nM

serine leukocyte protease inhibitor (SLPI), sequence (P03973 26-132): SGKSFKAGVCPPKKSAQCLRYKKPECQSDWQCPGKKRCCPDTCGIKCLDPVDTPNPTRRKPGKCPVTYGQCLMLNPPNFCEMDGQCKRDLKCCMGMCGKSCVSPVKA

Question: “serine leukocyte protease inhibitor (SLPI) (from UniProt P03973 26-132)” was tested. Which CPM *SLPI BOUND [1] did it give?
Answer: 14800 cpm

Question: What about the CPM *SLPI BOUND [2] of the same substance?
Answer: 18700 cpm

Question: And the % *SLPI BOUND [3]?
Answer: 46%

Question: And the bound *SLPI (pM) [4]?
Answer: 217 pM

Question: And the bound per free [4]?
Answer: 0.204

Question: And the sites bound per cell (sites per cell) [4]?
Answer: 13100

Question: And the specific cpm [4]?
Answer: 8650 cpm

Question: And the % *SLPI BOUND [5]?
Answer: 0.5%

Question: And the CPM *SLPI BOUND [6]?
Answer: 11000 cpm

Question: What about the % *SLPI BOUND [7] of the same substance?
Answer: 0%

Question: What about the bound *SLPI (pM) [8] of the same substance?
Answer: 748 pM

Question: What about the bound per free [8] of the same substance?
Answer: 0.171

Question: What about the sites bound per cell (sites per cell) [8] of the same substance?
Answer: 45100

Question: And the specific cpm [8]?
Answer: 7990 cpm

Question: What about the bound pM [9] of the same substance?
Answer: 215 pM

Question: What about the bound per free [9] of the same substance?
Answer: 0.092

Question: What about the sites bound per cell (sites per cell) [9] of the same substance?
Answer: 12900

Question: And the specific cpm [9]?
Answer: 2300 cpm

Question: And the bound pM [10]?
Answer: 274 pM

Question: What about the bound per free [10] of the same substance?
Answer: 0.028

Question: And the sites bound per cell (sites per cell) [10]?
Answer: 16500

Question: And the specific cpm [10]?
Answer: 2930 cpm

Question: What about the bound pM [11] of the same substance?
Answer: 130 pM

Question: And the bound per free [11]?
Answer: 0.113

Question: And the sites bound per cell (sites per cell) [11]?
Answer: 7830

Question: What about the specific cpm [11] of the same substance?
Answer: 1390 cpm

Question: What about the % *SLPI BOUND [12] of the same substance?
Answer: 57%

Question: And the bound *SLPI (pM) [13]?
Answer: 463 pM

Question: What about the bound per free [13] of the same substance?
Answer: 0.047

Question: What about the sites bound per cell (sites per cell) [13] of the same substance?
Answer: 27900

Question: And the specific cpm [13]?
Answer: 18500 cpm

Question: What about the bound *SLPI (pM) [14] of the same substance?
Answer: 9.5 pM

Question: What about the bound per free [14] of the same substance?
Answer: 0.311

Question: And the sites bound per cell (sites per cell) [14]?
Answer: 572

Question: What about the specific cpm [14] of the same substance?
Answer: 380 cpm

Question: What about the pKd [15] of the same substance?
Answer: 8.70

Question: What about the bound *SLPI (pM) [16] of the same substance?
Answer: 101 pM

Question: And the bound per free [16]?
Answer: 0.461

Question: What about the sites bound per cell (sites per cell) [16] of the same substance?
Answer: 6080

Question: What about the specific cpm [16] of the same substance?
Answer: 1080 cpm

Question: And the CPM *SLPI BOUND [17]?
Answer: 5710 cpm

Question: What about the % *SLPI BOUND [18] of the same substance?
Answer: 24%

Question: What about the pKd [19] of the same substance?
Answer: 8.70

Question: What about the pKd [20] of the same substance?
Answer: 8.70

Question: And the % *SLPI BOUND [21]?
Answer: 90%

Question: What about the pKd [22] of the same substance?
Answer: 8.96

Question: What about the bound pM [23] of the same substance?
Answer: 135 pM

Question: What about the bound per free [23] of the same substance?
Answer: 0.027

Question: And the sites bound per cell (sites per cell) [23]?
Answer: 8130

Question: And the specific cpm [23]?
Answer: 1440 cpm

Question: What about the % *SLPI BOUND [24] of the same substance?
Answer: 11%
